The results in this text go back to patent US20230183713A1, “SITE-SPECIFIC RECOMBINASES FOR EFFICIENT AND SPECIFIC GENOME EDITING” (TECHNISCHE UNIVERSITÄt DRESDEN, published 2023).

Holding throughout (experiment): cell_activity; E. coli plasmid assay, median
What all share (details): chain copies: 2

The target in one data set is Cre Q311R + Cre W315M (UniProt P06956;P06956 SEQ:1-343,SEQ:1-343, W315M (second monomer)). The method, then:
(§1) To generate further obligate recombinases, additional single mutations in the catalytic region (i.e. at amino acid positions 129-136, 163-181, 199-211, 289-301, 310-316 and 321-324 of SEQ ID NO: 1, cf. FIG. 17A, dark regions) of the recombination synapse of the Cre recombinase (Guo et al. 1997, Lee et al. 2002, Gibb et al. 2010, Meinke et al. 2016) were introduced as outlined in Table 6 below. […] Recombination activity of the recombinases on loxP was measured by a plasmid-based assay as previously described (6, 9, 10). in the experiments, the recombined pEVO is smaller in size compared to the non-recombined pEVO. […] These two different fragments can either be distinguished by gel electrophoresis or by sequencing. The recombination efficiencies (indicated as dimer and monomer acitivty, respectively) were calculated based on the ratio of recombined and non-recombined substrate using the following formula: Recombination activity (%)=100×(recombined substrate/(recombined+non-recombined substrates)).

The next data set has as its target Cre K201F + Cre Y324C (UniProt P06956;P06956 SEQ:1-343,SEQ:1-343, K201F (first monomer); Y324C (second monomer)). The method, then: as §1
Another data set addresses Cre K201A + Cre Q311R (UniProt P06956;P06956 SEQ:1-343,SEQ:1-343, K201A (first monomer)). The protocol:
as §1

The target in the next data set is Cre E129R + Cre K201R (UniProt P06956;P06956 SEQ:1-343,SEQ:1-343, E129R (first monomer)). The protocol:
as §1

In a further data set the target is Cre R173F + Cre E176V (UniProt P06956;P06956 SEQ:1-343,SEQ:1-343, R173F (first monomer); E176V (second monomer)). The protocol:
as §1

The next data set has as its target Cre E176I + Cre Q311R (UniProt P06956;P06956 SEQ:1-343,SEQ:1-343, E176I (first monomer)). The method, then:
as §1

The target of another data set is Cre R173G + Cre K201Y (UniProt P06956;P06956 SEQ:1-343,SEQ:1-343, R173G (first monomer); K201Y (second monomer)). The protocol: as §1
The next data set has as its target Cre Q311R + Cre W315S (UniProt P06956;P06956 SEQ:1-343,SEQ:1-343, W315S (second monomer)). The protocol:
as §1

The target in a further data set is Cre Q311R + Cre Y324F (UniProt P06956;P06956 SEQ:1-343,SEQ:1-343, Y324F (second monomer)). The protocol: as §1
A further data set concerns the target Cre R292G + Cre Q311R (UniProt P06956;P06956 SEQ:1-343,SEQ:1-343, R292G (first monomer)). The method, then: as §1
The target of another data set is Cre R173S + Cre Q311R (UniProt P06956;P06956 SEQ:1-343,SEQ:1-343, R173S (first monomer)). The method, then:
as §1

In the next data set the target is Cre Q133H + Cre Q311R (UniProt P06956;P06956 SEQ:1-343,SEQ:1-343, Q133H (first monomer)). The method, then: as §1
The next data set deals with Cre E129R + Cre Q311R (UniProt P06956;P06956 SEQ:1-343,SEQ:1-343, E129R (first monomer)). The method, then:
as §1

The target in another data set is Cre R173A + Cre Q311R (UniProt P06956;P06956 SEQ:1-343,SEQ:1-343, R173A (first monomer)). The method, then:
as §1

The next data set addresses Cre Q311R + Cre Y324I (UniProt P06956;P06956 SEQ:1-343,SEQ:1-343, Y324I (second monomer)). The method, then:
as §1

For the next data set, the target named is Cre W315Q + Cre Y324V (UniProt P06956;P06956 SEQ:1-343,SEQ:1-343, W315Q (first monomer); Y324V (second monomer)). The protocol:
as §1

Another data set concerns the target Cre W315K + Cre Y324K (UniProt P06956;P06956 SEQ:1-343,SEQ:1-343, W315K (first monomer); Y324K (second monomer)). The method, then:
as §1

The target in a further data set is Cre E176W + Cre Q311R (UniProt P06956;P06956 SEQ:1-343,SEQ:1-343, E176W (first monomer)). The protocol:
as §1

The target of the next data set is Cre H289D + Cre Q311R (UniProt P06956;P06956 SEQ:1-343,SEQ:1-343, H289D (first monomer)). The protocol: as §1
A further data set addresses Cre K201M + Cre K201R (UniProt P06956;P06956 SEQ:1-343,SEQ:1-343, K201M (first monomer)). The protocol: as §1
A further data set concerns the target Cre R292Y + Cre Y324M (UniProt P06956;P06956 SEQ:1-343,SEQ:1-343, R292Y (first monomer); Y324M (second monomer)). The method, then:
as §1

For the next data set, the target named is Cre R292F + Cre Q311R (UniProt P06956;P06956 SEQ:1-343,SEQ:1-343, R292F (first monomer)). The method, then:
as §1

A further data set addresses Cre H289W + Cre W315C (UniProt P06956;P06956 SEQ:1-343,SEQ:1-343, H289W (first monomer); W315C (second monomer)). The protocol:
as §1

B1: loxP (dsDNA)
DNA 1: ATAACTTCGTATAATGTATGCTATACGAAGTTAT
DNA 2: ATAACTTCGTATAGCATACATTATACGAAGTTAT
With B1, the activity is 95 % recombined with Cre Q311R + Cre W315M; 98 % recombined with Cre K201F + Cre Y324C; 95 % recombined with Cre K201A + Cre Q311R; 26 % recombined with Cre E129R + Cre K201R; 82 % recombined with Cre R173F + Cre E176V; 36 % recombined in the data set with Cre E176I + Cre Q311R. For the same molecule, the activity with Cre R173G + Cre K201Y worked out at 95 % recombined; with Cre Q311R + Cre W315S, 37 % recombined; with Cre Q311R + Cre Y324F, 95 % recombined; with Cre R292G + Cre Q311R, 97 % recombined; in the data set with Cre R173S + Cre Q311R, 97 % recombined; with Cre Q133H + Cre Q311R it was 96 % recombined. Further, the activity with Cre E129R + Cre Q311R stood at 93 % recombined; in the data set with Cre R173A + Cre Q311R, 93 % recombined; in the data set with Cre Q311R + Cre Y324I, 96 % recombined; with Cre W315Q + Cre Y324V, 97 % recombined; with Cre W315K + Cre Y324K, 99 % recombined; in the data set with Cre E176W + Cre Q311R it was 90 % recombined. In addition, the activity with Cre H289D + Cre Q311R worked out at 97 % recombined; with Cre K201M + Cre K201R, 76 % recombined; with Cre R292Y + Cre Y324M it was 90 % recombined; with Cre R292F + Cre Q311R, 42 % recombined; with Cre H289W + Cre W315C, 87 % recombined.
